Measurements reported in patent US20240336686A1 (ELPISCIENCE SUZHOU BIOPHARMA, published 2024).

T1: human Claudin18.2 protein (Octet assay) (human, UniProt P56856-2 1-261, limits assumed)
T1 construct: UniProt P56856 isoform A2 corresponds to Claudin18.2; also called CLDN18.2
T1 sequence (looked up): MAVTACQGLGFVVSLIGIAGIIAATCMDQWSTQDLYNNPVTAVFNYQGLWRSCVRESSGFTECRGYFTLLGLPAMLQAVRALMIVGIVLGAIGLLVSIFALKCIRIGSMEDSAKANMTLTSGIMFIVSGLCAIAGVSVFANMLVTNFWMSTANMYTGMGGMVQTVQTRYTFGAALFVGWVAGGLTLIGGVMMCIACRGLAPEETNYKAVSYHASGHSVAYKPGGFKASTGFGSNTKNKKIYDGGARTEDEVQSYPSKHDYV


Tests used:
[1] = target: T1, human Claudin18.2 protein (Octet assay); experiment: Octet; antibody on sensor, Claudin18.2 protein in solution
Method: (§1) The Anti-Claudin18.2/SIRPα bispecific protein were characterized for binding affinity against human Claudin18.2 or SIRPα using Octet assay (ForeBio) according to manufacturer's manual, separately. Briefly, the antibodies were coupled on sensors and then the sensors were dipped into Claudin18.2 or SIRPα protein gradients (start at 200 nM, with 2-fold dilution and totally 8 doses). Their binding responses were measured in real-time and results were fit globally.

[2] = target: human PDL1 protein (Octet assay) (human, UniProt Q9NZQ7 19-238); experiment: Octet; antibody on sensor, PDL1 protein in solution
Method: as §1, with “Anti-PDL1/SIRPα” for “Anti-Claudin18.2/SIRPα”, “PDL1” for “Claudin18.2 or SIRPα”

human PDL1 protein (Octet assay), sequence (Q9NZQ7 19-238 limits assumed): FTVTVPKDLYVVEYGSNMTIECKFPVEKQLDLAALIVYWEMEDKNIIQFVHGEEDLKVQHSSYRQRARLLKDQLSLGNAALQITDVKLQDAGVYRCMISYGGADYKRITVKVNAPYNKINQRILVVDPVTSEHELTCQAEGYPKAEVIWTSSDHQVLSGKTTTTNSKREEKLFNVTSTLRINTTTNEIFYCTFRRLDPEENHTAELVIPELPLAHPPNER

Binder | Kd [1] | koff [1] | kon [1] | Kd [2] | koff [2] | kon [2]
Anti-Claudin18.2/SIRPα bispecific antibody ES028-009 (bispecific antibody, not shown: CL; CH1-Fc) light (part 1 of 2): QIVLTQSPAIMSASPGEKVTLTCSASSSVSSSYLYWYQQKPGSSPKLWIYSTSNLASGVPARFSGSGSGTSYSLTISSMEAEDAASYFCHQWSSYPYTFGGGTKLEIK light (part 2 of 2): GGGGSGGGGSGGGGSDIVMTQSPDSLAVSLGERATINCKSSQSLLNAGNQKNYLTWYQQKPGQPPKLLIYWSSTRESGVPDRFSGSGSGTDFTLTISSLQAEDVAVYHCQNNYYYPLTFGGGTKLEIKGGGGSGGGGSGGGGSGGGGSQVQLVQSGAEVKKPGASVKVSCKASGYTFTNWVHWVRQAPGQGLEWMGEINPTNARSNYNEKFKKRVTMTRDTSTSTVYMELSSLRSEDTAVYYCARIYYGNSFAHWGQGTLVTVSS heavy: EVQLQQSGAELVKPGASVKLSCTASGFNIKDYYMHWVKQRTEQGLEWIGRIDPEDGETKYAPKFQGKATITADTSSNTAYLQLSSLTSEDTAVYYCDRGLAYWGQGTLVTVSA | < 0.001 nM | < 1e-07 s⁻¹ | 21100 M⁻¹ s⁻¹ | – | – | –
Anti-PDL1/SIRPα bispecific antibody ES019-079 (bispecific antibody, not shown: CL; linker and Fc; CH1) light: QIVLTQSPAIMSASPGEKVTLTCSASSSVSSSYLYWYQQKPGSSPKLWIYSTSNLASGVPARFSGSGSGTSYSLTISSMEAEDAASYFCHQWSSYPYTFGGGTKLEIK heavy (part 1 of 2): EVQLVESGGGLVQAGGSLRLSCAASGFTFSSHAMSWVRQAPGKGLEWVSDIDTSGTTTDYADSVKGRFTISRDNAKNTLYLQMNSLKPEDTAVYYCAKGPREATDIRSWGQGTQVTVSS heavy (part 2 of 2): GGGGSGGGGSGGGGSEVQLQQSGAELVKPGASVKLSCTASGFNIKDYYMHWVKQRTEQGLEWIGRIDPEDGETKYAPKFQGKATITADTSSNTAYLQLSSLTSEDTAVYYCDRGLAYWGQGTLVTVSA | – | – | – | 0.0485 nM | 2.85e-05 s⁻¹ | 588000 M⁻¹ s⁻¹
Anti-PDL1/SIRPα bispecific antibody ES019-029 (bispecific antibody) chain 1: EVQVVESGGGLVQSGGSLKLSCAGSGFTESAGFMVWHRQVPGKERELVALIATPSGSTNYADSVKGRFTISRDNGKNTVYLQMNSLKPEDTAVYYCNIRGYWGQGTLVTVSS chain 2: EVQLQQSGAELVKPGASVKLSCTASGFNIKDYYMHWVKQRTEQGLEWIGRIDPEDGETKYAPKFQGKATITADTSSNTAYLQLSSLTSEDTAVYYCDRGLAYWGQGTLVTVSA chain 3: QIVLTQSPAIMSASPGEKVTLTCSASSSVSSSYLYWYQQKPGSSPKLWIYSTSNLASGVPARFSGSGSGTSYSLTISSMEAEDAASYFCHQWSSYPYTFGGGTKLEIK | – | – | – | 1.23 nM | 0.00136 s⁻¹ | 1.11e+06 M⁻¹ s⁻¹
Anti-PDL1/SIRPα bispecific antibody ES019-025 (bispecific antibody, not shown: CL; linker; CH1-Fc) light: QIVLTQSPAIMSASPGEKVTLTCSASSSVSSSYLYWYQQKPGSSPKLWIYSTSNLASGVPARFSGSGSGTSYSLTISSMEAEDAASYFCHQWSSYPYTFGGGTKLEIK heavy (part 1 of 2): EVQVVESGGGLVQSGGSLKLSCAGSGFTESAGFMVWHRQVPGKERELVALIATPSGSTNYADSVKGRFTISRDNGKNTVYLQMNSLKPEDTAVYYCNIRGYWGQGTLVTVSS heavy (part 2 of 2): EVQLQQSGAELVKPGASVKLSCTASGFNIKDYYMHWVKQRTEQGLEWIGRIDPEDGETKYAPKFQGKATITADTSSNTAYLQLSSLTSEDTAVYYCDRGLAYWGQGTLVTVSA | – | – | – | 3.81 nM | 0.00604 s⁻¹ | 1.58e+06 M⁻¹ s⁻¹
Anti-PDL1 antibody C570 (antibody, V domains shown, Heavy chain antibody; also called Anti-PDL1, C570) VH: EVQLVESGGGLVQAGGSLRLSCAASGFTFSSHAMSWVRQAPGKGLEWVSDIDTSGTTTDYADSVKGRFTISRDNAKNTLYLQMNSLKPEDTAVYYCAKGPREATDIRSWGQGTQVTVSS | – | – | – | 0.374 nM | 0.000306 s⁻¹ | 819000 M⁻¹ s⁻¹
Anti-PDL1 antibody 570h3 (antibody, V domains shown, Humanized heavy chain antibody; also called Anti-PDL1, 570h3) VH: EVQLVESGGGLVQPGGSLRLSCAASGFTFSSHAMSWVRQAPGKGLEWVSDIDTSGTTTDYADSVKGRFTISRDNSKNTLYLQMNSLRAEDTAVYYCAKGPREATDIRSWGQGTTVTVSS | – | – | – | 0.198 nM | 9.29e-05 s⁻¹ | 470000 M⁻¹ s⁻¹
Anti-Claudin18.2 antibody hu28.H1L2 (antibody, V domains shown, Humanized monoclonal antibody; also called Anti-Claudin18.2, hu28.H1L2) VH: QVQLVQSGAEVKKPGASVKVSCKASGYTFTNWVHWVRQAPGQGLEWMGEINPTNARSNYNEKFKKRVTMTRDTSTSTVYMELSSLRSEDTAVYYCARIYYGNSFAHWGQGTLVTVSS VL: DIVMTQSPDSLAVSLGERATINCKSSQSLLNAGNQKNYLTWYQQKPGQPPKLLIYWSSTRESGVPDRFSGSGSGTDFTLTISSLQAEDVAVYHCQNNYYYPLTFGGGTKLEIK | < 0.001 nM | < 1e-07 s⁻¹ | 95800 M⁻¹ s⁻¹ | – | – | –
Anti-Claudin18.2/SIRPα bispecific antibody ES028-001 (bispecific antibody, not shown: CL; CH1-Fc) light (part 1 of 2): DIVMTQSPDSLAVSLGERATINCKSSQSLLNAGNQKNYLTWYQQKPGQPPKLLIYWSSTRESGVPDRFSGSGSGTDFTLTISSLQAEDVAVYHCQNNYYYPLTFGGGTKLEIK light (part 2 of 2): GGGGSGGGGSGGGGSQIVLTQSPAIMSASPGEKVTLTCSASSSVSSSYLYWYQQKPGSSPKLWIYSTSNLASGVPARFSGSGSGTSYSLTISSMEAEDAASYFCHQWSSYPYTFGGGTKLEIKGGGGSGGGGSGGGGSGGGGSEVQLQQSGAELVKPGASVKLSCTASGFNIKDYYMHWVKQRTEQGLEWIGRIDPEDGETKYAPKFQGKATITADTSSNTAYLQLSSLTSEDTAVYYCDRGLAYWGQGTLVTVSA heavy: QVQLVQSGAEVKKPGASVKVSCKASGYTFTNWVHWVRQAPGQGLEWMGEINPTNARSNYNEKFKKRVTMTRDTSTSTVYMELSSLRSEDTAVYYCARIYYGNSFAHWGQGTLVTVSS | < 0.001 nM | < 1e-07 s⁻¹ | 105000 M⁻¹ s⁻¹ | – | – | –
Anti-Claudin18.2/SIRPα bispecific antibody ES028-005 (bispecific antibody, not shown: CL; CH1-Fc) light: DIVMTQSPDSLAVSLGERATINCKSSQSLLNAGNQKNYLTWYQQKPGQPPKLLIYWSSTRESGVPDRFSGSGSGTDFTLTISSLQAEDVAVYHCQNNYYYPLTFGGGTKLEIK heavy (part 1 of 2): QVQLVQSGAEVKKPGASVKVSCKASGYTFTNWVHWVRQAPGQGLEWMGEINPTNARSNYNEKFKKRVTMTRDTSTSTVYMELSSLRSEDTAVYYCARIYYGNSFAHWGQGTLVTVSS heavy (part 2 of 2): GGGGSGGGGSGGGGSQIVLTQSPAIMSASPGEKVTLTCSASSSVSSSYLYWYQQKPGSSPKLWIYSTSNLASGVPARFSGSGSGTSYSLTISSMEAEDAASYFCHQWSSYPYTFGGGTKLEIKGGGGSGGGGSGGGGSGGGGSEVQLQQSGAELVKPGASVKLSCTASGFNIKDYYMHWVKQRTEQGLEWIGRIDPEDGETKYAPKFQGKATITADTSSNTAYLQLSSLTSEDTAVYYCDRGLAYWGQGTLVTVSA | < 0.001 nM | < 1e-07 s⁻¹ | 106000 M⁻¹ s⁻¹ | – | – | –
Anti-Claudin18.2 antibody hu26.H1L2 (S92A) (antibody, V domains shown, Humanized monoclonal antibody; also called Anti-Claudin18.2, hu26.H1L2 (S92A)) VH: EVQLLESGGGLVQPGGSLRLSCAASGFTLSSYALSWVRQAPGKGLEWVSYISNLGGSTFYPDTVKGRFTISRDNSKNTLYLQMNSLRAEDTAVYYCAKHLYNYDAFASWGQGTLVTVSS VL: DIQLTQSPSFLSASVGDRVTITCRASSSVNYIHWYQQKPGKAPKALIYATSNLASGVPSRFSGSGSGTEYTLTISSLQPEDFATYYCQQWNANPLTFGQGTKLEIK | 1.81 nM | 6.25e-05 s⁻¹ | 34500 M⁻¹ s⁻¹ | – | – | –
